The target of one assay is PARP1-Flag. Put plainly: proximity ligation; MiaPaCa-2 cells transfected with PARP1-Flag; mouse anti-Flag and rabbit anti-NUPR1 antibodies; untreated or 24 h with ZZW-115 1.5 uM, 5-FU 10 uM, olaparib 25 uM or 5-FU + olaparib; foci counted with ImageJ.

B1: recombinant wild-type NUPR1 (natural protein)
chain: MATFPPATSAPQQPPGPEDEDSSLDESDLYSLAHSYLGGGGRKGRTKREAAANTNRPSPGGHERKLVTKLQNSERKKRGARR
With B1, the inhibition of PARP1 enzymatic activity in an acellular PARP1 activity assay with 2 and 4 µM rNUPR1 (26.5% at 2 µM, 48.4% at 4 µM) with recombinant PARP1 was 48.4%.

B2: NUPR1 (detected with the anti-NUPR1 antibody in MiaPaCa-2 cells) (natural protein)
chain: MATFPPATSAPQQPPGPEDEDSSLDESDLYSLAHSYLGGGGRKGRTKREAAANTNRPSPGGHERKLVTKLQNSERKKRGARR
In the case of B2, in the assay with PARP1-Flag, the PLA foci/cell (cells treated with 5-FU) was determined as 94.7 foci/cell, the PLA foci/cell (cells treated with ZZW-115) came to 12.5 foci/cell and the PLA foci/cell (control condition) worked out at 59.5 foci/cell.

The values are drawn from article PMC9307593.
